Consider 17 substances from patent US5767235.

The target of the first experiment is human-thrombin (product of Sigma) (human) (UniProt P00734). As to the kind of experiment: chromogenic thrombin inhibition assay, potency column of Table 3 (hirudin HV-1 = 1).
Substance hirudin HV-1 returned a Potency of 1.

The next experiment has the same target.
Experiment: not given
“peptide (C) Suc-Gly-Asp-Phe-Glu-Pro-Ile-Pro-Glu-Tyr-Tyr-Leu-Gln-OH” gave a 50% Inhibition Concentration (clotting assay) of 3750 ng/mL and a Potency of 1.76.

“peptide (L) Suc-Phe-Glu-Pro-Ile-Pro-Glu-Tyr-Tyr-NH(CH2)4COOH” returned a 50% Inhibition Concentration (clotting assay) of 15600 ng/mL and a Potency of 0.42.

The substance “peptide (U) Suc-Phe-Glu-Pro-Ile-Pro-Glu-Tyr-Tyr-Leu-(D)Asu(OMe)OMe” returned a 50% Inhibition Concentration (clotting assay) of 47500 ng/mL and a Potency of 0.14.

Substance “peptide (N) Suc-Phe-Glu-Pro-Ile-Pro-Glu-Tyr-Tyr-NH(CH2)3OH” displayed a 50% Inhibition Concentration (clotting assay) of 103000 ng/mL and a Potency of 0.06.

Regarding “peptide (R) Suc-Phe-Glu-Pro-Ile-Pro-Glu-Tyr-Tyr-Leu-NHEt”, the 50% Inhibition Concentration (clotting assay) worked out at 36100 ng/mL and the Potency was determined as 0.18.

As to “peptide (P) Suc-Phe-Glu-Pro-Ile-Pro-Glu-Tyr-Tyr-Leu-ol”, the 50% Inhibition Concentration (clotting assay) was determined as 104000 ng/mL and the Potency was found to be 0.06.

hirudin HV-1 gave a Potency of 95.

As to “peptide (I) Suc-Phe-Glu-Pro-Ile-Pro-Glu-Tyr-Tyr-OH”, the 50% Inhibition Concentration (clotting assay) was determined as 20000 ng/mL and the Potency was determined as 0.83.

Turning to “peptide (O) Suc-Phe-Glu-Pro-Ile-Pro-Glu-Tyr-Tyr-(L)Asu(OMe)OMe”, the 50% Inhibition Concentration (clotting assay) worked out at 35300 ng/mL and the Potency was 0.19.

Take “peptide (A) Gly-Asp-Phe-Glu-Glu-Ile-Pro-Glu-Tyr-Tyr-Leu-Gln”: the 50% Inhibition Concentration (clotting assay) is 14700 ng/mL and the Potency is 0.45.

The substance “peptide (V) Suc-Phe-Glu-Pro-Ile-Pro-Glu-Tyr-Tyr-Leu-(L)Asu(OMe)OMe” returned a 50% Inhibition Concentration (clotting assay) of 30400 ng/mL and a Potency of 0.22.

“peptide (J) Suc-Phe-Glu-Pro-Ile-Pro-Glu-Tyr-Tyr-NH2”: the 50% Inhibition Concentration (clotting assay) is 98400 ng/mL and the Potency was 0.07.

Consider “peptide (B) Gly-Asp-Phe-Glu-Glu-Ile-Pro-Tyr-Tyr-Tyr-Leu-Gln”, for which the 50% Inhibition Concentration (clotting assay) turned out to be 13800 ng/mL and the Potency came to 0.48.

In the case of “peptide (W) Suc-Phe-Glu-Pro-Ile-Pro-Glu-Tyr-Tyr-Leu-(D)Asu(NH2)NH2”, the 50% Inhibition Concentration (clotting assay) is 35000 ng/mL and the Potency came to 0.19.

With “peptide (Y) Suc-Phe-Glu-Pro-Ile-Pro-Glu-Tyr-Tyr-Leu-NHPO(OH)2”, the 50% Inhibition Concentration (clotting assay) worked out at 153000 ng/mL and the Potency worked out at 0.04.

For the substance “peptide (K) Suc-Phe-Glu-Pro-Ile-Pro-Glu-Tyr-Tyr-NH(CH2)2COOH”, the 50% Inhibition Concentration (clotting assay) was found to be 30200 ng/mL and the Potency worked out at 0.21.

As for “peptide (S) Suc-Phe-Glu-Pro-Ile-Pro-Glu-Tyr-Tyr-Leu-Tau-NH2”, the 50% Inhibition Concentration (clotting assay) came out at 99600 ng/mL and the Potency amounted to 0.07.
